The values below come from US11254745.

Assay [1] concerns the target extracellular domain of hCD4 fused with human Fc tag (hCD4-hFc) (human) (UniProt P01730). The assay can be described thus: ELISA on human CD4, OD450; fitted EC50 of the control in the table under the graph (unit from the graph's axis). On the technique in general: An ELISA detects its analyte on a solid surface through an enzyme-linked reagent.
Assay [2] shares this target. The assay can be described thus: ELISA on plate-coated CD4-hFc, OD450; fitted EC50 of the negative control in the table under the graph (unit from the graph's axis).

Isotype IgG1 (antibody) came in with an EC50 in assay [1] of 4.48 µg/mL.
The same measure, in the same setting: to hIgG1 (antibody) belongs 0.78 µg/mL.
The substance mIgG1 (antibody) registered a 50% effective concentration (EC50) in assay [2] of 0.542 µg/mL.

What is called EC50 is the concentration needed to bring the measured effect to its halfway point. High values mean weaker potency, low ones greater potency.
